Test results: patent publication EP0797662B1

Biological target: extracellular domain of the aFGF receptor (sFGFR)
Experiment: ITC, aFGF and the extracellular domain of its receptor

aFGF, sequence (P05230 16-155): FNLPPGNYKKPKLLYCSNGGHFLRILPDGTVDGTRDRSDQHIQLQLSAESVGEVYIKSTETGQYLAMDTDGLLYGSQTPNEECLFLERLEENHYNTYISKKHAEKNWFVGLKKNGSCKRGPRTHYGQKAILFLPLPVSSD

Kd: 500 nM
Substance: aFGF
